This is an account of results in the Immune Epitope Database (IEDB).

What is called Kd is the concentration at which binding is half-saturated. A lower Kd goes with tighter binding.

For one test, the target named is HLA-A*68:02. Briefly: IEDB peptide-MHC binding, purified MHC/competitive/fluorescence; filed as Kd, often an IC50 or EC50 that approximates it; ≥ and ≤ were set here for values at or beyond the usual limits of such assays.
For test [1], the target named is HLA-A*26:01. Described as above.
The target of another test is HLA-A*02:03. Described as above.
Test [2] addresses HLA-B*15:01. Described as above.
The target in a further test is HLA-A*31:01. Described as above.
Another test concerns the target HLA-A*02:19. The description is as above.
The target in test [3] is HLA-A*69:01. Described as above.
In the next test the target is HLA-B*57:01. Described as above.
The target in a further test is HLA-A*02:16. The description is as above.
The target of a further test is HLA-B*27:03. The test is described as above.
In the next test the target is HLA-B*46:01. The description is as above.
The next test addresses HLA-B*15:17. The test is described as above.
Another test deals with HLA-A*24:03. The description is as above.
The target in a further test is HLA-A*02:12. The test is described as above.
A further test addresses HLA-B*18:01. The test is described as above.
A further test concerns the target HLA-B*51:01. Described as above.
The target of test [4] is HLA-A*02:01. Described as above.
For the next test, the target named is HLA-B*39:01. The description is as above.
Test [5] concerns the target HLA-A*26:01. Briefly: IEDB peptide-MHC binding, purified MHC/direct/fluorescence; filed as Kd, often an IC50 or EC50 that approximates it; ≥ and ≤ were set here for values at or beyond the usual limits of such assays. The settings on record: source organism: Influenza A virus (A/Taiwan/2/2006(H1N1)).
A further test addresses HLA-B*08:02. Described as above.
The target of the next test is HLA-B*44:02. Described as above. The settings on record: source organism: Influenza A virus (A/Duck/Shantou/2134/00(H9N2)).
The target of test [6] is HLA-B*15:01. The description is as above. The settings on record: source organism: Influenza A virus (A/Puerto Rico/8/34/Mount Sinai(H1N1)).
Test [7] addresses HLA-A*69:01. The description is as above. The note with it: source organism: Influenza A virus (A/Duck/Shantou/2134/00(H9N2)).
The next test has as its target HLA-A*24:02. The test is described as above. The note with it: source organism: Influenza A virus (A/Duck/Shantou/2134/00(H9N2)).
Another test deals with HLA-B*08:01. The description is as above.
In the next test the target is HLA-B*58:01. The description is as above. The settings on record: source organism: Influenza A virus (A/Duck/Shantou/2134/00(H9N2)).
The target of the next test is HLA-B*40:01. The test is described as above. The note with it: source organism: Influenza A virus (A/Duck/Shantou/2134/00(H9N2)).
A further test concerns the target HLA-B*07:02. The test is described as above. The note with it: source organism: Influenza A virus (A/Duck/Shantou/2134/00(H9N2)).
Another test addresses HLA-B*27:05. The test is described as above. The note with it: source organism: Influenza A virus (A/Duck/Shantou/2134/00(H9N2)).
A further test concerns the target HLA-A*11:01. The test is described as above. The settings on record: source organism: Influenza A virus (A/Duck/Shantou/2134/00(H9N2)).
The target of test [8] is HLA-A*03:01. Described as above. The settings on record: source organism: Influenza A virus (A/Duck/Shantou/2134/00(H9N2)).
Another test has as its target HLA-A*01:01. The test is described as above. The settings on record: source organism: Influenza A virus (A/Duck/Shantou/2134/00(H9N2)).
Test [9] addresses HLA-A*02:01. The test is described as above. The note with it: source organism: Influenza A virus (A/Duck/Shantou/2134/00(H9N2)).
For a further test, the target named is HLA-A*02:11. Briefly: IEDB peptide-MHC binding, purified MHC/competitive/fluorescence; filed as Kd, often an IC50 or EC50 that approximates it; ≥ and ≤ were set here for values at or beyond the usual limits of such assays.
Another test has as its target HLA-A*29:02. The description is as above. The note with it: source organism: Brucella abortus S19.
The target of test [10] is HLA-A*03:01. The description is as above. The note with it: source organism: Brucella abortus S19.
The mark [11] stands for this setting: source organism: Influenza A virus (A/Gf/HK/SSP607/2003(H9N2)).
Where [12] appears, read: source organism: Vibrio parahaemolyticus AQ3810.
[13] abbreviates: source organism: Brucella abortus S19.
[14] abbreviates: source organism: Giardia lamblia ATCC 50803.

With AMITYITRK, the Kd with HLA-A*68:02 (setting [11]) is at least 20 µM; with HLA-A*26:01 [1] (setting [11]) it was at least 20 µM; with HLA-A*02:03 (setting [11]) it was at least 20 µM; with HLA-B*15:01 [2] (setting [11]) it was at least 20 µM; with HLA-A*31:01 (setting [11]) it was 0.158 µM; in the test with HLA-A*02:19 (setting [11]) it was at least 20 µM. The Kd with HLA-A*69:01 [3] (setting [11]), with HLA-B*57:01 (setting [11]), with HLA-A*02:16 (setting [11]), with HLA-B*27:03 (setting [11]), in the test with HLA-B*46:01 (setting [11]) and in the test with HLA-B*15:17 (setting [11]) was at least 20 µM in each case. Besides, the Kd with HLA-A*24:03 (setting [11]), in the test with HLA-A*02:12 (setting [11]), in the test with HLA-B*18:01 (setting [11]), with HLA-B*51:01 (setting [11]), with HLA-A*02:01 [4] (setting [11]) and with HLA-B*39:01 (setting [11]) was at least 20 µM throughout.
Take ASRGLWDSF: the Kd was at least 20 µM in the test with HLA-A*26:01 [5]; at least 20 µM with HLA-B*08:02 (source organism: Influenza A virus (A/Taiwan/2/2006(H1N1))); at least 20 µM with HLA-B*44:02; 0.891 µM in the test with HLA-B*15:01 [6]; at least 20 µM with HLA-A*69:01 [7]; at least 20 µM in the test with HLA-A*24:02. The Kd with HLA-B*08:01 (source organism: Influenza A virus (A/Duck/Shantou/2134/00(H9N2))) is at least 20 µM; with HLA-B*58:01, at least 5 µM; with HLA-B*40:01, at least 20 µM; in the test with HLA-B*07:02 it was at least 20 µM; with HLA-B*27:05 it was at least 20 µM; with HLA-A*11:01 it was at least 20 µM. Further, the Kd in the test with HLA-A*03:01 [8], in the test with HLA-A*01:01 and with HLA-A*02:01 [9] was at least 20 µM each time.
Regarding HFIYHKREK, the Kd with HLA-A*68:02 (setting [12]) is at least 20 µM; with HLA-A*26:01 [1] (setting [12]), at least 20 µM; with HLA-A*02:03 (setting [12]), at least 20 µM; with HLA-B*15:01 [2] (setting [12]), at least 20 µM; in the test with HLA-A*31:01 (setting [12]), 0.0188 µM; with HLA-A*02:19 (setting [12]), at least 20 µM. Further, the Kd with HLA-A*69:01 [3] (setting [12]), with HLA-B*57:01 (setting [12]), with HLA-A*02:16 (setting [12]), in the test with HLA-B*27:03 (setting [12]), with HLA-B*46:01 (setting [12]) and in the test with HLA-B*15:17 (setting [12]) was at least 20 µM throughout. Moreover, the Kd with HLA-A*24:03 (setting [12]), in the test with HLA-A*02:11 (setting [12]), with HLA-A*02:12 (setting [12]), with HLA-B*18:01 (setting [12]), in the test with HLA-B*51:01 (setting [12]) and in the test with HLA-A*02:01 [4] (setting [12]) was at least 20 µM in each case. The same sequence displayed a Kd with HLA-B*39:01 (setting [12]) of at least 20 µM.
Consider KCRLRMDKL, for which the Kd with HLA-B*08:02 (source organism: Dengue virus 2 Thailand/16681/84) was at least 20 µM.
Take KQWIVAGAI: the Kd with HLA-A*68:02 (setting [13]), in the test with HLA-A*26:01 [1] (setting [13]), with HLA-A*02:03 (setting [13]), with HLA-B*15:01 [2] (setting [13]), in the test with HLA-A*02:19 (setting [13]) and with HLA-A*69:01 [3] (setting [13]) was at least 20 µM throughout. In addition, the Kd was at least 20 µM in the test with HLA-B*57:01 (setting [13]); at least 20 µM with HLA-B*27:03 (setting [13]); at least 20 µM in the test with HLA-B*46:01 (setting [13]); at least 20 µM with HLA-B*15:17 (setting [13]); at least 20 µM with HLA-A*24:03 (setting [13]); at most 0.0001 µM with HLA-A*02:11 (setting [13]). In addition, the Kd in the test with HLA-A*02:12 (setting [13]) is at least 20 µM; with HLA-B*18:01 (setting [13]), at least 20 µM; with HLA-A*29:02 it was at least 20 µM; with HLA-B*51:01 (setting [13]), at least 20 µM; with HLA-A*03:01 [10], at least 20 µM; with HLA-A*02:01 [4] (setting [13]), 0.0017 µM. For the same sequence, the Kd in the test with HLA-B*39:01 (setting [13]) was at least 20 µM.
As for YSKIRGAAL, the values for the Kd with HLA-B*08:02 (setting [14]) and with HLA-B*08:01 (setting [14]) were 0.445 µM and 0.027 µM, respectively.
